# B1: TACI (d1-29)-Fc5 (protein)
# chain: MDAMKRGLCCVLLLCGAVFVSLSQEIHAELRRFRRAMRSCPEEQYWDPLLGTCMSCKTICNHQSQRTCAAFCRSLSCRKEQGKFYDHLLRDCISCASICGQHPKQCAYFCENKLRSPVNLPPELRRQRSGEVENNSDNSGRYQGLEHRGSEASPALPGLKEPKSSDKTHTCPPCPAPEAEGAPSVFLFPPKPKDTLMISRTPEVTCVVVDVSHEDPEVKFNWYVDGVEVHNAKTKPREEQYNSTYRVVSVLTVLHQDWLNGKEYKCKVSNKALPSSIEKTISKAKGQPREPQVYTLPPSRDELTKNQVSLTCLVKGFYPSDIAVEWESNGQPENNYKTTPPVLDSDGSFFLYSKLTVDKSRWQQGNVFSCSVMHEALHNHYTQKSLSLSPGK
# B2: TACI (d1-29, d120-154)-Fc5 (protein)
# chain: MDAMKRGLCCVLLLCGAVFVSLSQEIHAELRRFRRAMRSCPEEQYWDPLLGTCMSCKTICNHQSQRTCAAFCRSLSCRKEQGKFYDHLLRDCISCASICGQHPKQCAYFCENKLRSPVNLPPELREPKSSDKTHTCPPCPAPEAEGAPSVFLFPPKPKDTLMISRTPEVTCVVVDVSHEDPEVKFNWYVDGVEVHNAKTKPREEQYNSTYRVVSVLTVLHQDWLNGKEYKCKVSNKALPSSIEKTISKAKGQPREPQVYTLPPSRDELTKNQVSLTCLVKGFYPSDIAVEWESNGQPENNYKTTPPVLDSDGSFFLYSKLTVDKSRWQQGNVFSCSVMHEALHNHYTQKSLSLSPGK
# B3: TACI (d1-29, d111-154)-Fc5 (protein)
# chain: MDAMKRGLCCVLLLCGAVFVSLSQEIHAELRRFRRAMRSCPEEQYWDPLLGTCMSCKTICNHQSQRTCAAFCRSLSCRKEQGKFYDHLLRDCISCASICGQHPKQCAYFCENKLRSEPKSSDKTHTCPPCPAPEAEGAPSVFLFPPKPKDTLMISRTPEVTCVVVDVSHEDPEVKFNWYVDGVEVHNAKTKPREEQYNSTYRVVSVLTVLHQDWLNGKEYKCKVSNKALPSSIEKTISKAKGQPREPQVYTLPPSRDELTKNQVSLTCLVKGFYPSDIAVEWESNGQPENNYKTTPPVLDSDGSFFLYSKLTVDKSRWQQGNVFSCSVMHEALHNHYTQKSLSLSPGK
# B4: TACI (d1-29, d107-154)-Fc5 (protein)
# chain: MDAMKRGLCCVLLLCGAVFVSLSQEIHAELRRFRRAMRSCPEEQYWDPLLGTCMSCKTICNHQSQRTCAAFCRSLSCRKEQGKFYDHLLRDCISCASICGQHPKQCAYFCENEPKSSDKTHTCPPCPAPEAEGAPSVFLFPPKPKDTLMISRTPEVTCVVVDVSHEDPEVKFNWYVDGVEVHNAKTKPREEQYNSTYRVVSVLTVLHQDWLNGKEYKCKVSNKALPSSIEKTISKAKGQPREPQVYTLPPSRDELTKNQVSLTCLVKGFYPSDIAVEWESNGQPENNYKTTPPVLDSDGSFFLYSKLTVDKSRWQQGNVFSCSVMHEALHNHYTQKSLSLSPGK
# Target: ZTNF4 (BLyS/BAFF) (human)
# Assay: other, solution radioligand binding with precipitation
row,Kd [nM],Binder
1,0.134,B1
2,0.092,B2
3,0.115,B3
4,0.121,B4

# Target: ZTNF4 (BLyS/BAFF) (human)
# Assay: competition, 125I-ZTNF4 binding to TACI-coated plates
row,IC50 [nM],Binder
1,2.07,B1
2,2.21,B2
3,2.31,B3
4,4.95,B4

# Source: US20090209006 (published 2009)
